Results reported in PMC3575409, “Identification of a Novel Protein-Protein Interaction Motif Mediating Interaction of GPCR-Associated Sorting Proteins with G Protein-Coupled Receptors” (PLoS ONE, 2013).

Legend:
[1] = target: T1, purified full-length cannabinoid receptor type 2 (CNR2) (human, UniProt P34972 1-360); assay: SPR; competition: 1.1 µM ADRB2 or 0.30 µM CNR2 preincubated at least 1 h with a range of GASP peptide or control peptide, injected over captured GST-tagged central domain of GASP-1; 25°C; endpoint responses 20 s after injection end; details: both partners purified
T1 construct: human cannabinoid receptor type 2; further tags may be present; also called full-length CNR2; source: P. pastoris, solubilized in DDM/CHS, purified (HisTrap)

[2] = target: T2, purified full-length β2 adrenergic receptor (ADRB2) (human, UniProt P07550 1-413); assay: as above; details: both partners purified
T2 construct: human β2 adrenergic receptor; further tags may be present; also called full-length ADRB2; source: P. pastoris, solubilized in DDM/CHS, purified (HisTrap)

T1 sequence (P34972 whole entry, the tested form may be a part): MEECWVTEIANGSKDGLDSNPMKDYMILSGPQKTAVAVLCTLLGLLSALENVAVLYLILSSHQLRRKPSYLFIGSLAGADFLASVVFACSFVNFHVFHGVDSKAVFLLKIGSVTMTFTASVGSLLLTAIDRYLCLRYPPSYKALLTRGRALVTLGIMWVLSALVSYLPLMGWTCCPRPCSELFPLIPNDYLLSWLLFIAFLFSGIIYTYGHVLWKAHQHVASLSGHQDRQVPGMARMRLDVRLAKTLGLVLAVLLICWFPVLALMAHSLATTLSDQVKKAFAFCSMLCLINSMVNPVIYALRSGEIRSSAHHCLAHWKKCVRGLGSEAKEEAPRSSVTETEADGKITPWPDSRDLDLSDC

B1: GASP peptide (peptide)
peptide: RVKQEPRFEEEVIIGSWFWAEKEA
notes: 24 amino acids containing the first GASP motif of GASP-2; also called synthetic peptide of 24 amino acids containing the first GASP motif of GASP-2; source: synthetic peptide (Genecust, ≥85% purity)
B1 showed an IC50 [1] of about 100 µM and an IC50 [2] of about 100 µM.
